The chains are these.
B1: WNT3A: exogenous WNT growth factor (R&D) (protein, UniProt P56704 19-352, looked up)
Protein Wnt-3a: SYPIWWSLAVGPQYSSLGSQPILCASIPGLVPKQLRFCRNYVEIMPSVAEGIKIGIQECQHQFRGRRWNCTTVHDSLAIFGPVLDKATRESAFVHAIASAGVAFAVTRSCAEGTAAICGCSSRHQGSPGKGWKWGGCSEDIEFGGMVSREFADARENRPDARSAMNRHNNEAGRQAIASHMHLKCKCHGLSGSCEVKTCWWSQPDFRAIGDFLKDKYDSASEMVVEKHRESRGWVETLRPRYTYFKVPTERDLVYYEASPNFCEPNPETGSFGTRDRTCNVSSHGIDGCDLLCCGRGHNARAERRREKCRCVFHWCCYVSCQECTRVYDVHTCK
B2: R-SPONDIN1: exogenous growth factor R-spondin 1 (Peprotech) (protein, UniProt Q2MKA7 21-263, looked up)
R-spondin-1: SRGIKGKRQRRISAEGSQACAKGCELCSEVNGCLKCSPKLFILLERNDIRQVGVCLPSCPPGYFDARNPDMNKCIKCKIEHCEACFSHNFCTKCKEGLYLHKGRCYPACPEGSSAANGTMECSSPAQCEMSEWSPWGPCSKKQQLCGFRRGSEERTRRVLHAPVGDHAACSDTKETRRCTVRRVPCPEGQKRRKGGQGRRENANRNLARKESKEAGAGSRRRKGQQQQQQQGTVGPLTSAGPA
B3: NOGGIN: recombinant human NOGGIN, BMP antagonist (protein, UniProt Q13253 28-232, looked up)
Noggin: QHYLHIRPAPSDNLPLVDLIEHPDPIFDPKEKDLNETLLRSLLGGHYDPGFMATSPPEDRPGGGGGAAGGAEDLAELDQLLRQRPSGAMPSEIKGLEFSEGLAQGKKQRLSKKLRRKLQMWLWSQTFCPVLYAWNDLGSRFWPRYVKVGSCFSKRSCSVPEGMVCKPSKSVHLTVLRWRCQRRGGQRCGWIPIQYPIISECKCSC

The first assay relates to human distal lung organoids. Kind of assay: Screening exogenous growth factors in distal lung organoid culture. Particulars: single cell suspensions of distal lung, feeder-free; EGF and NOGGIN in combination. The class given is cell-based. The text has this: (§1) Screening exogenous growth factors in organoid culture.
As to B1, the “distal lung organoid growth with exogenous growth factors” value was “without any additional growth-promoting effects”.
Consider B2, for which the “distal lung organoid growth with exogenous growth factors” value is reported as “without any additional growth-promoting effects”.
Still for that read-out and setting: to B3 belongs “optimal”.

For the next assay, the system named is basal organoids. As to the kind of experiment: Growth factor evaluation for basal organoids after sedimentation and clonogenic culture. The class given is cell-based, human. The following applies: pure basal cell cultures; EGF and Noggin together.
Excerpt: as §1
Density sedimentation of basal cells. Organoid cultures within 2-3 weeks of primary plating were dissociated with 1 U/ml neutral protease (Worthington, Cat LS02100) and 100 KU of DNase I in organoid media. Basal organoids were then collected by gravity sedimentation and the supernatant was either aspirated or collected for downstream use. Basal organoids were then further fractionated on a custom Ficoll-Paque gradient (4 vol Ficoll-Paque to 1 vol PBS) and centrifuged at 300×g for 10 minutes at room temperature. The supernatant was aspirated and the organoid pellet was resuspended in 10 ml PBS in a 15 ml conical tube, collected by gravity sedimentation, and plated into ECM as described above.
For B1, the “basal organoid growth with exogenous growth factors” value was “without additive effects”.
Regarding B2, the “basal organoid growth with exogenous growth factors” value is given as “without additive effects”.
Still for that read-out and setting: to B3 belongs “sufficient for maximal growth”.

A further assay relates to AT2 organoids. Kind of assay: AT2 organoid proliferation with niche factors and PORCUPINE inhibitor. Particulars: EGF and NOGGIN together; WNT-3A and RSPONDIN-1 added exogenously.
Method: Screening exogenous growth factors in organoid culture. Distal airway cells were isolated and plated as above with the following exceptions: ADMEM/F12 was used instead of organoid medium during elastase digestion of lung tissue, cells were serially diluted and filtered through a 40 micron cell strainer and counted with a hemocytometer. 1000 viable epithelial cells (by Trypan blue exclusion, size, and morphology) per μL ECM were plated per 5 μL Matrigel droplet per well. Base media consisted of organoid media lacking A83-01, EGF, NOGGIN, WNT3A or RSPO1. EGF (final 50 ng/ml, R&D), NOGGIN (final 100 ng/ml, R&D), WNT3A (final 100 ng/ml, R&D), RSPO1 (final 500 ng/ml, Peprotech) or the PORCUPINE inhibitor C59 (final 1μM, Biogems) were added singly or in combination to base media. Images were obtained ten days after primary plating with an inverted light microscope at 5X magnification. Each condition was plated in quadruplicate and organoid formation was quantified using the analyze particle (threshold=4902 pixels) plugin in ImageJ as previously described.
In the case of B1, the “clonal AT2 organoid proliferation with exogenous growth factors” value is recorded as “did not enhance growth”.
With B2, the “clonal AT2 organoid proliferation with exogenous growth factors” value was “did not enhance growth”.
The same measure, in the same setting: to B3 belongs “sufficient for clonal AT2 organoid proliferation”.

The record behind these values is patent US20230257716A1 (priority 2020, published 2023).
